From US10815297B2, “Antagonists of IL17C for the treatment of inflammatory disorders” (MorphoSys AG, priority 2011, dated 2020)

Experiments:
[1] = tested on: Balb/c N mice, IMQ induced psoriasis; test: Imiquimod (IMQ) psoriasis-like mouse model; format: in vivo; settings: 10 mg/kg i.p., 3 days before and at D0
From the text: The pro-inflammatory function of IL17C in the skin was examined in a non-infectious cutaneous inflammation mouse model of psoriasis where topical TLR7-TLR8 agonist Imiquimod induces psoriatic skin lesions characterized by epidermal proliferation and leukocyte infiltration, which are dependent on pathogenic TH17 cytokines (Van der Fits et al., J of Immunol. 2009 May 1; 182(9):5836-45.). The role of IL17C in this particular model was recently documented (Ramirez-Carrozzi et al, Nat Immunol. 2011 12(12):1159-66) and a convincing genetic proof of the IL17C role in the disease model was provided with IL17C^−/− mice. […]
In order to induce a psoriatic-like response, a daily topical dose of 62.5 mg of Imiquimod cream on the shaved back and the right ear for 5 consecutive days (D0-D4), translating in a daily dose of 3.13 mg of the active compound. The control group was constituted with mice receiving the same quantity of Vaseline cream. […] Body weight was daily recorded. At necropsy and at the days indicated, the ears and the back skin thicknesses were measured using a micrometer (Mitutoyo). […] Spleen and thymus weight was measured.
Mice were randomly divided into equal groups (n=10). […] The control group was constituted with control mice receiving the same quantity of Vaseline. […]

[2] = tested on: mouse CIA model (DBA1/J mice); test: Mouse collagen induced arthritis (CIA) model, therapeutic protocol; format: in vivo; settings: 10 mg/kg, 3x week, i.p., day 31 to day 46
Experimental: DBA1/J mice (male, 6-7 weeks old, approx 20 gram) were obtained from Centre d'Elevage Regional Janvier (Laval, France). Mice were kept on a 12 hr light/dark cycle (0700-1900). Temperature was maintained at 22° C., and food and water were provided ad libitum.
One day before the experiment, CII solution (2 mg/mL) was prepared with 0.05 M acetic acid and stored at 4° C. Just before the immunization, equal volumes of adjuvant […] and CII were mixed by a homogenizer in a pre-cooled glass bottle in an ice water bath. Extra adjuvant and prolonged homogenization may be required if an emulsion is not formed. 0.1 mL of the emulsion was injected intradermally at the base of the tail of each mouse on day 1, a second booster intradermal injection (CII solution at 2 mg/mL in […] 0.1 mLemulsion) was performed on day 21. This immunization method was modified from published methods (Brand et al, 2007, Collagen-induced arthritis. Nature Protocols; vol 2 (5): 1269-1275; Lin et al., 2007, Anti-rheumatic activities of histone deacetylase (HDAC) inhibitors in vivo in collagen-induced arthritis in rodents. Br J Pharmacol. April; 150 (7):829-31).
The therapeutic effects of the antibodies were tested in the mouse CIA model. Mice were randomly divided into equal groups and each group contained 10 mice. All mice were immunized on day 1 and boosted on day 21. Therapeutic dosing lasted from day 31 to day 46. The negative control group was treated with vehicle (PBS) and the positive control group with Enbrel (10 mg/kg, 3× week, i.p.). An antibody of interest was tested at 10 mg/kg, i.p. 3 times per week.
Anti-IL17C antibodies were administered i.p. three times a week at 10 mg/kg. […]
Arthritis was scored according to the method of Khachigian 2006 (Collagen antibody-induced arthritis. (2006) Nature Protocols 1, 2512-6), Lin et al 2007 (supra); Nishida et al. 2004 (Histone deacetylase inhibitor suppression of autoantibody-mediated arthritis in mice via regulation of p16INK4a and p21(WAF1/Cip1) expression. Arthritis Rheum. 10: 3365-76); and Brand et al. 2007 (supra). […]

B1: MOR12743: anti-mouse IL17C HuCAL antibody; CDRs SEQ ID NO: 31-36, VL 37, VH 38; human/mouse chimeric IgG2a (antibody, V domains shown)
VH: QVQLVQSGAEVKKPGASVKVSCKASGYTFTSNFIHWVRQAPGQGLEWMGWISPYNGDTNYAQKFQGRVTMTRDTSISTAYMELSRLRSEDTAVYYCARESVYYGSDYGYNGMDIWGQGTLVTVSS
VL: DIELTQPPSVSVSPGQTASITCSGDNLGEEYVSWYQQKPGQAPVLVIYDDTKRPSGIPERFSGSNSGNTATLTISGTQAEDEADYYCASWDLWSVEVFGGGTKLTVLGQ
modifications: mouse IgG2a constant regions; VH; VL
effect on epidermal thickness induced by IMQ in the mouse ear skin (histology) [1]: significant
inhibition of inflammation / disease progression (clinical score) [2]: significant inhibition
